Reference: paper PMC6158738

T1: PfuHAN-D5 (Pyrococcus furiosus, UniProt Q8U3Q7 50-740)
T1 sequence: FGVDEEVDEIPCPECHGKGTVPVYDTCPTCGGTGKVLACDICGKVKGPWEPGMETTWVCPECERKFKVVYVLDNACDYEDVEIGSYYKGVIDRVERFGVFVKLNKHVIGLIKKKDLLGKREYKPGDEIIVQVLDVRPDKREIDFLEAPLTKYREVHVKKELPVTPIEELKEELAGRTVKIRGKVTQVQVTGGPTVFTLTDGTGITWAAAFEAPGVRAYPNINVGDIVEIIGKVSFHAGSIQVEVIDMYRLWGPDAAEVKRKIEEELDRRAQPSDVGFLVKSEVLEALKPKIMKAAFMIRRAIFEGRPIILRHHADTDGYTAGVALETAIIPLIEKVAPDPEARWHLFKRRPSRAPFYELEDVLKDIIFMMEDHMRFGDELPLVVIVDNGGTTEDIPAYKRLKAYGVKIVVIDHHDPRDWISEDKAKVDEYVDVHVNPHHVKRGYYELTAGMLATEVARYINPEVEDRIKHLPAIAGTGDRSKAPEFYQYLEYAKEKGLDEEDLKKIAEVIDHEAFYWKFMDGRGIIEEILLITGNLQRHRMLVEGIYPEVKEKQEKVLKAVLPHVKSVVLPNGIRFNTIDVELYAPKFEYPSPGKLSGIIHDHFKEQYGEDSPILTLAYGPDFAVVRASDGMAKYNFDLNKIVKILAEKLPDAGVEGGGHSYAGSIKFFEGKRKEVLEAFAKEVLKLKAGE

T2: PfuHAN-D3 (Pyrococcus furiosus, UniProt Q8U3Q7 201-740)
T2 sequence: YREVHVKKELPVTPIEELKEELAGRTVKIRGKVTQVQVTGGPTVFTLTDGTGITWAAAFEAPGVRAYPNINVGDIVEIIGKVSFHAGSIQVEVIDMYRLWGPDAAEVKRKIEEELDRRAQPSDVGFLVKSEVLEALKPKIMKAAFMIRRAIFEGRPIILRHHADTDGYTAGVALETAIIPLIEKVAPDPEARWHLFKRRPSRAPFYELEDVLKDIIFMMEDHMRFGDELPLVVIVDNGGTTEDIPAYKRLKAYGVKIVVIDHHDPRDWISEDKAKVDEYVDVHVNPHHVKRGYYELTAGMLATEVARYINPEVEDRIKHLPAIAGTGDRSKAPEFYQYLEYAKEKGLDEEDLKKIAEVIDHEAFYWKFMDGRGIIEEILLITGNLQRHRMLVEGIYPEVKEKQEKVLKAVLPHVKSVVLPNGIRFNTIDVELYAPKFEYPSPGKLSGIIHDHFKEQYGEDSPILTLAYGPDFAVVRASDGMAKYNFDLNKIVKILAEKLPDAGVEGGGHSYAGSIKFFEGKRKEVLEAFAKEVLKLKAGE

T3: PfuHAN-D4 (Pyrococcus furiosus, UniProt Q8U3Q7 112-740)
T3 sequence: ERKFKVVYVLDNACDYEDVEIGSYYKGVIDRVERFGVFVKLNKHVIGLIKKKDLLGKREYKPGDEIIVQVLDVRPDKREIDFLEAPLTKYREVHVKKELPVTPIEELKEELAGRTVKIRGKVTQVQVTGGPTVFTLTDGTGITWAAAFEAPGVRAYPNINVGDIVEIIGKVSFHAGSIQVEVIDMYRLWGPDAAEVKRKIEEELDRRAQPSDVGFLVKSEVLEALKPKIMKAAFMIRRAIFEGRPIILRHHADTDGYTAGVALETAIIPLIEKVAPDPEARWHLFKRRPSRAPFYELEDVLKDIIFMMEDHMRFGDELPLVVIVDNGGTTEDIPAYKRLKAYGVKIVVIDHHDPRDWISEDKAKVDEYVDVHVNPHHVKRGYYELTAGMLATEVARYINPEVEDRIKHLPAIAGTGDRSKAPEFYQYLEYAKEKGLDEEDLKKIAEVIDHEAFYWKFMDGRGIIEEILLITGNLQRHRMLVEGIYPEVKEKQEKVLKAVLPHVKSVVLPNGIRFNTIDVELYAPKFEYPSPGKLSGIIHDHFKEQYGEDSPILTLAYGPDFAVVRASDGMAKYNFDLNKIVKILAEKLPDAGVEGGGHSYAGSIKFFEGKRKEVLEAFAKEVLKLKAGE

T4: PfuHAN-D1 (Pyrococcus furiosus, UniProt Q8U3Q7 305-740)
T4 sequence: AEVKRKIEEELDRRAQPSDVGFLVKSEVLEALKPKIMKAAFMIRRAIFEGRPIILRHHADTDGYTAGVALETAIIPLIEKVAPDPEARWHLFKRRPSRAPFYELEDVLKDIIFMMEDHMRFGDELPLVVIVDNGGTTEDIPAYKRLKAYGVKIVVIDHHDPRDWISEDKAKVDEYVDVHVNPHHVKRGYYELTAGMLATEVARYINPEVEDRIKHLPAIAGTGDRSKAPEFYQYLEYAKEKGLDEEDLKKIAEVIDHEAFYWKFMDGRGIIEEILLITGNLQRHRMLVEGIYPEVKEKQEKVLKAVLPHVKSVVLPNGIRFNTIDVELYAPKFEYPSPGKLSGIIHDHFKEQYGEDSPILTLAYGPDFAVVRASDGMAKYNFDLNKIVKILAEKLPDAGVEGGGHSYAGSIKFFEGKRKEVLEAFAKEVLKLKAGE

T5: PfuHAN-D2 (Pyrococcus furiosus, UniProt Q8U3Q7 227-740)
T5 sequence: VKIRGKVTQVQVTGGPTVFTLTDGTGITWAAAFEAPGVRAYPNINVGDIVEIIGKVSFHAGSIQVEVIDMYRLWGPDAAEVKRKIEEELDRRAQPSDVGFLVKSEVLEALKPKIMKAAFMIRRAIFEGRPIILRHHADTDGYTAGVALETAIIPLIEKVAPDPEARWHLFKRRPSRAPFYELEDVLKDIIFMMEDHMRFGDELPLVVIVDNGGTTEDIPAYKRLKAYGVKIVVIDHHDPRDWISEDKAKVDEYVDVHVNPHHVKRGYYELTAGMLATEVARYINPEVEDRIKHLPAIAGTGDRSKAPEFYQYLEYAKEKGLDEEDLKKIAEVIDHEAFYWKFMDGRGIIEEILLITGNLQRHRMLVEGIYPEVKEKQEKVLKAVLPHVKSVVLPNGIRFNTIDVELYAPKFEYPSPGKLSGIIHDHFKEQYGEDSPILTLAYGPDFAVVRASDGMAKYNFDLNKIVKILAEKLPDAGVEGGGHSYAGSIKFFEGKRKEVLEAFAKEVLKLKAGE

T6: PfuHAN wt (Pyrococcus furiosus, UniProt Q8U3Q7 1-740)
T6 sequence: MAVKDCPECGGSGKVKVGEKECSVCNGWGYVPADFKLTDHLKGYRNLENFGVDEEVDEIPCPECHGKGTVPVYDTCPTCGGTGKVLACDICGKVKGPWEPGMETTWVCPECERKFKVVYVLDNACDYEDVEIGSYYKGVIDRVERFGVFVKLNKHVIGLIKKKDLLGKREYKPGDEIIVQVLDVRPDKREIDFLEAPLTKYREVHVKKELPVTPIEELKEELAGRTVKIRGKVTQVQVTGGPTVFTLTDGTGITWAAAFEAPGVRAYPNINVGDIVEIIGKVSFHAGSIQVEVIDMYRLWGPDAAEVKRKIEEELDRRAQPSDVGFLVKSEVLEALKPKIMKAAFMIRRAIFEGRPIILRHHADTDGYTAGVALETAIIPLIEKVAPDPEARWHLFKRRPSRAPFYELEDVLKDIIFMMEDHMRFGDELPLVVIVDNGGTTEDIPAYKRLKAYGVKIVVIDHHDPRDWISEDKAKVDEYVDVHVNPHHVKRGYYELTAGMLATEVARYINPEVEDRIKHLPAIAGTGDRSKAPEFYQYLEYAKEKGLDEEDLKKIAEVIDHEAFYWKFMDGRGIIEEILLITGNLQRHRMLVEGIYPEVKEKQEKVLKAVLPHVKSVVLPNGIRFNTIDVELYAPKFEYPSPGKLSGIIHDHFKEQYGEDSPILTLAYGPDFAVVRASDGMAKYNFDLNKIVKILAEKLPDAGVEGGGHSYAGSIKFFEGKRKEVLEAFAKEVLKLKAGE


Experiments:
[1] = biological target: PfuHAN_DND E562A (Pyrococcus furiosus); assay: SEC
PfuHAN-D5 = biological target: T1, PfuHAN-D5; assay: EMSA
PfuHAN-D3 = biological target: T2, PfuHAN-D3; assay: EMSA
PfuHAN-D4 = biological target: T3, PfuHAN-D4; assay: EMSA
PfuHAN-D1 = biological target: T4, PfuHAN-D1; assay: EMSA
PfuHAN-D2 = biological target: T5, PfuHAN-D2; assay: EMSA
PfuHAN wt = biological target: T6, PfuHAN wt; assay: MST

stoichiometry N [1]	Molecule	binding result (PfuHAN-D5)	binding result (PfuHAN-D3)	binding result (PfuHAN-D4)	binding result (PfuHAN-D1)	binding result (PfuHAN-D2)	binding result (PfuHAN wt)
3	PfuHAN_DND E562A (domain or fragment)	–	–	–	–	–	–
–	AGGCTGCGGTCGAGTTGACAGCACTGCACGCATTACTGAGCT (ssDNA) [42-nt ssDNA]	no binding	no binding	no binding	no binding	no binding	no binding
